{
  "source": "the DeepSol protein solubility set",
  "data": [
    {"assay": "soluble on expression in E. coli; label from the status in PepcDB or PDB records", "values": [
      {"sequence": "MKRAVITGLGIVSSIGNNQQEVLASLQEGRSGITFAQEFKDAGMRSHVWGDVKLQSEPKDLIDRKVLRFMSDASIYAYLAMQEAIADSGLSDSQVSNFRSGLVVGSGGGSPRNQVAGSDAMRTPRGLKGVGPYMVTKAMASGVSACLATPFKIKGVNYSISSACATSAHCIGHALELIQLGKQDIVFAGGGEELCWEMACEFDAMGALSTKYNDTPAKASRTYDQDRDGFVIAGGGGMVVVEELEHALARGAHIYAEIVGYGATSDGADMVAPSGEGAVRCMQMAMAGVDTPIDYMNVHGTSTPVGDVKELGAIREVFGNNTPAISSTKAMTGHSLGAAGVHEAIFSLLMVEHGFIAPSINIDNLDEQAQGMNIITETTQRELTTVMSNSFGFGGTNATLVMRKYQK", "soluble on expression in E. coli": "not soluble"},
      {"sequence": "MKRKRIDIITLGCSKNLVDSEQLMRQLEEAGYSVTHDTENPEGEIAVINTCGFIGDAKEESINMILEFAERKEEGDLKKLFVMGCLSERYLQELAIEIPQVDKFYGKFNWKELLQDLGKTYHEELYIERTLTTPKHYAYLKISEGCDRKCSYCAIPIITGRHISKSMEEILDEVRYLVSQGVKEFQVIAQELTYYGVDLYKKQMLPELIERISEIPGVEWIRLHYAYPAHFPTDLFRVMRERDNVCKYMDIALQHISDNMLKLMRRQVSKEDTYKLIEQFRKEVPGIHLRTTLMVGHPGETEEDFEELKEFVRKARFDRMGAFAYSEEEGTYAAQQYEDSIPQEVKQARLDELMDIQQGISAELSAAKIGQQMKVIIDRIEGDYYIGRTEFDSPEVDPEVLISVSREELEVGQFYQVEVTDADDFDLYAKILNKYELEHHHHHH", "soluble on expression in E. coli": "soluble"},
      {"sequence": "MKRNAWEVYGEVLKTARELGLEGEEQEVAKALLAWPKERFHALAARVGLKAKYLRHDLLPIAFLPEPLREALQGGLPLREAHRLHRLLKRGELSLQDLTGKDPKALMALPARPGEVDPRLPVWFFPPEPWEEALPMAVARALVQLYTREGELVLDPMAGRGTVVEAARALDRRAWGGDIAPRGPLVERADIRDLPRRFRKEAALVVLHPPTFSTWLREEGYREEAEERYGEYIRHISSFLDLCRPTLAPGGKLVLVARPRRTLTPKDLEAGHDFFLAPWERALAEADFRPLSYHLAVSQDGRQDWHLFVGEPRG", "soluble on expression in E. coli": "soluble"},
      {"sequence": "MKRTTLVMLLLTLCGFSSASFALSESEAEDLADLTAVFVYLKNDCGYQELPNNEIKRAIVYFAQQNRWDLHNYDSFNMKALGEDSYRDLRGIALPTPVKCKSLARDSLSLLAYAN", "soluble on expression in E. coli": "not soluble"},
      {"sequence": "MKRVDSVISLIYSLSKSEKKHFSLQVIKDKEEKDYLVIYDIIIKSKQPNGNTVKEEFYRRKPNGSFEVSIQYLYEKLTDTLLTLRKKKDIYYDLLNNLCKARMLYERSLFEECFEILSNTIEQAQFYENNEILTIALKLELEYLLRLNFPNMTEQELFHKHFIQNEALKKIRKITEQSSLHNLLKYRLSHIGSIRTVKQKQDMNDLMVNELYIAASSDSEGNFELTRNHKLFQANYLMGAGDYRAALNSYKELDSLFEQNQQFWSNPPIYYLSVLEGVLGSLRSVSNYDEIPYFLDKLRKLISDSTSLEFKVNATCLLFQYELFPYLDKGDFSKCTQLMADYQEILYDKEAWLGPIRKSELLLYTTLVHIGNQEYKTAKKYISNAIIDHNIKYLPLMRTIRLVRLIVFYEVQEHELIQYESRSITRSLSSPKEQTFKTERIILWFLNKRNIPILKKDREAFWEKLSPEIHELYNNKYESQLLRLFDFTAWMESKIRKEKLSEVLRARASAKEC", "soluble on expression in E. coli": "not soluble"},
      {"sequence": "MKRVRKAIIPAAGLGTRFLPATKAMPKEMLPIVDKPTIQYIVEEAVKSGIEDIIIVTGKTKRSIEDHFDNAFELEQNLLEKKKYELLEKVQASSKMVDIHYIRQKEPKGLGHAVWCARKFIGDEPFAVLLGDDIVQAEKPCLRQLIEEYDKTLSSVIGVQTVPEDETHRYGIIDPLEQEGRRYQVRNFVEKPAAGTAPSNLAIMGRYVLTPEIFMFLEQQHVGAGGEIQLTDAIQSLNEIQRVFAYDFEGKRYDVGEKLGFVQTTIEMALQHPELRDDMVTMMKKILEEQTNQES", "soluble on expression in E. coli": "not soluble"},
      {"sequence": "MKSIYYLSADDLFQMNTFLIQTYSPAEQIGIKDRNALEMASNQPAQFVFDVDLYPTIEEKAAILMINIATKHCFYNANKRTAVMATDLFLQLNGYDFQLDTQEGVDLLVFIATYRSDFDQLKNDVSKVIRAKLNHTSSHLEHHHHHH", "soluble on expression in E. coli": "soluble"},
      {"sequence": "MKSKLICIIMVIAFQAHFTMTVKADSVGEEKLQNNTQAKKTPADLKALPDSCEAKDFYKNFKILDMTKDKLGVTHYTLALSSGGYLTDNDEIKVHVTPDNKITFINGDLQQGQLRITNQIKITEKNAIEKAFEAIGQSEAHVKSYVGNPVKEKEIILNSRTKRLVYNIKLIFAEPEVASWIVQVDVETGAILKKQNMLSEVERADTHKDFQALGKGANRLLQRPLHVMKINDLFYLVDRTHKGLIRTFDLKHNTDTSFGKVVSNKTNMFTDPEFSSAVDAHFYASEVYEYYKNVHQLESLDGKGGEIDSFVHYGLNCNNAFWDGQEILYGDGDKKNFKPFSCAKTIVGHELTHAVIQYSAGLEYEGQSGALNESFADVFGYFIAPNHWLIGEDVCVRGSRDGRIRSIKDPDKYNQAAHMKDYESLPLTEEGDWGGVHYNSGIPNKAAYNTITKLGKEKTEQLYFRALKYYLTKKSQFTDAKKALQQAAKDLYGEDASKKVAEAWEAVGVN", "soluble on expression in E. coli": "not soluble"},
      {"sequence": "MKSLGNRQRFLRRAREELKRSIRDKVRAGGIAELDREHVVPIPRKGTGEPTFGDDKESGRRQHILPGNRTFSSGDLIPKPGGGGGYGSAAGTTESEDDFRFVLSREEVLDLFFEDLELPDLVKLNLKQVLSFKPRRAGFAASGAPTNINVGRTMRNSHGRRIALRRPKQAELDAIARQIAELEAKPASALVRERIAALREALDRLERRRKRIAYVDPVDIRFNRFDPQPLPNANAVMFCLMDVSGSMGEREKDLAKRFFVLLHLFLTRRYERTDIVFIRHTHLAKEVDEHTFFYHTESGGTVVSTALEEMHRIIEQRYPVAEWNIYAAQASDGDNFAGDSERCIELLDRKLMRLCQYFAYVEIIDERESHIFGATENGTSLWRAYNAVDGKWPNFQMRRIAAPADIYPVFRQLFARQPDLRKSALEHHHHHH", "soluble on expression in E. coli": "soluble"},
      {"sequence": "MKSNPKYFLMNDVERQSKYSPKYVPNNSLKERILEFLDYYIAPLKLYLLSYPMPDCLWDNRKLRLKASGVQVTPSSEPVHIDDRLIHISQKQPSE", "soluble on expression in E. coli": "not soluble"},
      {"sequence": "MKSRAAVAFAPGKPLEIVEIDVAPPKKGEVLIKVTHTGVCHTDAFTLSGDDPEGVFPVVLGHEGAGVVVEVGEGVTSVKPGDHVIPLYTAECGECEFCRSGKTNLCVAVRETQGKGLMPDGTTRFSYNGQPLYHYMGCSTFSEYTVVAEVSLAKINPEANHEHVCLLGCGVTTGIGAVHNTAKVQPGDSVAVFGLGAIGLAVVQGARQAKAGRIIAIDTNPKKFDLARRFGATDCINPNDYDKPIKDVLLDINKWGIDHTFECIGNVNVMRAALESAHRGWGQSVIIGVAVAGQEISTRPFQLVTGRVWKGSAFGGVKGRSQLPGMVEDAMKGDIDLEPFVTHTMSLDEINDAFDLMHEGKSIRTVIRY", "soluble on expression in E. coli": "soluble"},
      {"sequence": "MKSVVLGILSSISDEVNLEMIKKYDVKLARRISGGGSVFHDMGNINYTFITSGQGGIDYLYGYLLRGTISAIENLVNDRVEVYNETDIAFKGYKISGNAGYINEDKYLLHGTLLVSSNLDI", "soluble on expression in E. coli": "soluble"},
      {"sequence": "MKSYAILNQNNLFLSLEELKAIIDSDEVEYYHGVALFNKEPNNVAKRSSLIKYSGRVIAISHDVNEIVKNIKGECFSVDPTVITKEYKSEFLSIYDRIINNIKVSKKCKKMDLIFTEGLIIAGLRVEEKDNESLFKHSKKPYSQSGTLSPDIGRLMVNLSKSRKTILDPFVGTGTILIEAKWLGLNCIGLDVDSKMIEKSLVNLRYFGYECDILRGDATSLPFNNIEAIVTDPPYGRSVSVREGINNLYEGFFYSASNITRTLVFTTDSKLDWRDKLKEVGFNDISIHFIYEHKSLSRAIYVVRKK", "soluble on expression in E. coli": "soluble"},
      {"sequence": "MKTIEVDDELYSYIASHTKHIGESRSDILRRMLKFSAASQKPVKTIKDKVRAMRELLLSDEYAEQKRAVNRFMLLLSTLYSLDAQAFAEATESLHGRTRVYFAADEQTLLKNGNQTKPKHVPGTPYWVITNTNTGRKCSMIEHIMQSMQFPAELIEKVCGTI", "soluble on expression in E. coli": "soluble"},
      {"sequence": "MKTIIFALNDHSPKYKQIYEKLKSLIERGDIQANEPLPSIRQLAESLNVSRNTTLMAYEQLAAEGYIRAEKRKGYFANEVEPLFIPKARISARQPAREAAAPVVVDFARRCR", "soluble on expression in E. coli": "not soluble"},
      {"sequence": "MKTKLDFLKMKESEEPIVMLTAYDYPAAKLAEQAGVDMILVGDSLGMVVLGLDSTVGVTVADMIHHTKAVKRGAPNTFIVTDMPFMSYHLSKEDTLKNAAAIVQESGADALKLEGGEGVFESIRALTLGGIPVVSHLGLTPQSVGVLGGYKVQGKDEQSAKKLIEDSIKCEEAGAMMLVLECVPAELTAKIAETLSIPVIGIGAGVKADGQVLVYHDIIGHGVERTPKFVKQYTRIDETIETAISGYVQDVRHRAFPEQKHSFQMNQTVLDGLYGGKLEHHHHHH", "soluble on expression in E. coli": "soluble"},
      {"sequence": "MKTNYHTHTTRCMHAVGDDEDYVRSAIKGGFQELGFSDHGPWKYHTDFVSDIRMLPEDLPEYIESIRALKEKYRNQISIKIGLEYEYFPEYIHWLKEIIKEYRLDYILFGNHHYHTDEKFPYFGHHTTNRDMLDLYEESTIEGMESGLFAYLAHPDLFMRSYPEFDKHCISVSRHICRAAARLHIPLEYNIGYVAINEARGITTYPCPQFWHIAANEGCTAIIGLDAHNNLDLENPTYYDRACQELNALKMPVIDTIPFLKY", "soluble on expression in E. coli": "not soluble"},
      {"sequence": "MKTPVCSEEQGPARDVIAQLLEDALQVESQEQPEQAFVKPHLVSEFDIYGFRTVPDDDEEEKLVAKVRALDLKTLYLTDNQEVSTGVKWENYFASTMNREMACSPELKNLIRAGIPHEHRSKVWKWCVDRHTRKFKDSMEPDYFQTLLQKALEKQNPASKQIELDLLRTLPNNKHYSSPTSEGIQKLRSVLLAFSWRNPDIGYCQGLNRLVAVALLYLDQEDAFWCLVTIVEVFMPRDYYTKTLLGSQVDQRVFRDLLSEKLPRLHTHFEQYKVDYTLITFNWFLVVFVDSVVSDILFKIWDSFLYEGPKVIFRFALALFKYKEEEILKLQDSMSIFKYLRYFTRTILDARKLISISFGDLNPFPLRQIRNRRAYHLEKVRLELTELEAIREDFLRERDTSPDKGELVSDEEEDT", "soluble on expression in E. coli": "not soluble"},
      {"sequence": "MKTQRIIHPNIDIRKFPEVNTDFSMTDISMGDLHANALLFLNILVRQGIIAISPENYAKFAEIYTLPELQADYWGTEAPVFSAENKQERLEEIKKQYNALIAQIKIINTKKLIRLIGDELVDRGVIDYFILKLLQALYDQGADFEILLSNHGIEFVEACELFKENGNKLVAKRLGNIQHGNSFHALQEAIAAGAISNEEVLNIYHQVYKKHLKIISYSLDPDANEIKVFSHAGIGLNHIRGLARKFKVPYSEESAVDLAKTIDAINKKFAEKASSGEIHTLYTHDMMYRGYAGEHLNSTDEVVAATVWGREYGDLIRTSKKFKITFIHGHDSYDPEKVEHVTLNNQLGQFQNNVGDLYLYATNGMRAVPTQYLNPDKKIQGSREKDRPDKPNDYVVKIHHTKPSFFKTSNPKITFPDSYKRIWDSADGDSNITKIKALLKDYTKEDSILGSFWGLIFTLHWGRHHVKSVHQIAQTKYTSVEAILSDLKALKPREGGSLDKRIKFIELQIIAQRCDSPEPQFNLK", "soluble on expression in E. coli": "not soluble"},
      {"sequence": "MKTRESSVGLKFRKFNRFYTNVLGFLNEHIYDSPFSLTETRILFEIYNTPNCTAKALQDKLGLDRGYVSRIVKQFEKEDLIYKQRSKDDARHHYIFVTETGKTIYKKLEEKANEQVELMLKVINQKEQHKLAEAMAEIEAILSQSLSARASEISIRDYFLSEDLQLLIEKQRQFYAEAHGWDDTFLAYLQETFDADIEKIWIAESGGKFAGSVGLVKHDEKTVQLRWFLVDADFRGRGLGTQLLEHLVAYCQDMKFDRIFLWTVSTMAEARPLYKKFGFRISEVKQEAPLWGQQLTEERWDLELS", "soluble on expression in E. coli": "soluble"},
      {"sequence": "MKTRSEVFQFEKELKWEHPAPGIRRQIMGYDGQLMMVKVEFEKGAVGTLHEHYHSQATYVASGKFELTIGDRKEILSTGDGYYVAPDEPHGCVCLEAGVLIDTFSPMRADFLE", "soluble on expression in E. coli": "not soluble"}
    ]}
  ]
}
